Measurements published in paper PMC6238537.

Assays:
Test in all cases: solid-phase binding assay
[1] = target: recombinant integrin αvβ3, P06756;P05106; conditions: read off a plot
[2] = target: recombinant integrin αvβ5, P06756;P18084; conditions: read off a plot
[3] = target: recombinant integrin α9β1, Q13797;P05556; conditions: parent: est. 0.11; read off a plot
Chain of recombinant integrin α9β1, Q13797;P05556 (chain, as listed by the source, chain 1 of 2): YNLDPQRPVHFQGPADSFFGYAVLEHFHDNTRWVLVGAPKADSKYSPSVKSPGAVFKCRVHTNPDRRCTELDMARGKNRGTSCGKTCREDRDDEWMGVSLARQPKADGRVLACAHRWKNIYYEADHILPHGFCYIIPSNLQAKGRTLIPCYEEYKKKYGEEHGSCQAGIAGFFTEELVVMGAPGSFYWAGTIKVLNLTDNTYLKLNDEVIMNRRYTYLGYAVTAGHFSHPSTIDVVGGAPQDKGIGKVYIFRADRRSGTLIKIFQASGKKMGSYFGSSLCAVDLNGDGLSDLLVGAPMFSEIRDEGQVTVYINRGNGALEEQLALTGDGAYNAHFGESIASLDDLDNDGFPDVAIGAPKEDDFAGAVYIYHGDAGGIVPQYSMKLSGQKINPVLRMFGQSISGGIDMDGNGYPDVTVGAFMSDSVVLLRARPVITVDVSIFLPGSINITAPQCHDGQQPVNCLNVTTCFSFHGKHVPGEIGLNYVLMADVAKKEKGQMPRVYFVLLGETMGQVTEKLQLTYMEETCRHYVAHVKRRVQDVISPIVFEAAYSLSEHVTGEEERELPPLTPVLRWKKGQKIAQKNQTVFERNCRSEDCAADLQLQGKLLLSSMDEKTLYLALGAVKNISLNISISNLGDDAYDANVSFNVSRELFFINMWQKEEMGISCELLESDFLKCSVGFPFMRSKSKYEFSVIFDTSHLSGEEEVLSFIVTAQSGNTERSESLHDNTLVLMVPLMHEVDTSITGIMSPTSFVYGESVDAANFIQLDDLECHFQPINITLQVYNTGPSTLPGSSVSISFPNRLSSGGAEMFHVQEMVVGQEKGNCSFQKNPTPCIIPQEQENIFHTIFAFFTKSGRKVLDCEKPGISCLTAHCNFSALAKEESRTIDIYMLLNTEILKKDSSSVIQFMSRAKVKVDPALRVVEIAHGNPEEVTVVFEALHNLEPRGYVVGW
Chain of recombinant integrin α9β1, Q13797;P05556 (chain, as listed by the source, chain 2 of 2): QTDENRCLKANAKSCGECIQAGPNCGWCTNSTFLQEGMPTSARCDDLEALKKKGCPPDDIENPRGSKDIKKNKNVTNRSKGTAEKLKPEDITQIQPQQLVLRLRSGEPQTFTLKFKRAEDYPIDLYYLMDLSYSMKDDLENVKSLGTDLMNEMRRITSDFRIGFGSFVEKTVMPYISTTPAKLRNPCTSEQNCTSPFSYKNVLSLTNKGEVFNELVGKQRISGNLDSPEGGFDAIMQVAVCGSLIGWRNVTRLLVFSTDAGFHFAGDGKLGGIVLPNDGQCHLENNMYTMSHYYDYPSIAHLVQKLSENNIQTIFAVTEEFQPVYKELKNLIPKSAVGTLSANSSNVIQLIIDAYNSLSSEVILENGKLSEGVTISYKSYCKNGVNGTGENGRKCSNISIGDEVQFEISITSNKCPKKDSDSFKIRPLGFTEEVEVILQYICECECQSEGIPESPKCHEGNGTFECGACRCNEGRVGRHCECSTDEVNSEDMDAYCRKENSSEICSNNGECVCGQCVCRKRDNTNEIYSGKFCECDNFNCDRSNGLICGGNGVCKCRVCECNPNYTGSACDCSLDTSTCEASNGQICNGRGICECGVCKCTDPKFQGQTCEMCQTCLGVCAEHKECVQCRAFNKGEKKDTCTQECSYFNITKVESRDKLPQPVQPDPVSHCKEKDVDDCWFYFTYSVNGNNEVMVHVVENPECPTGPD

| response (absorbance at 490 nm) ([1]; parent: est. 0.15) | response (absorbance at 490 nm) ([2]; parent: est. 0.26) | response (absorbance at 490 nm) [3] | response (absorbance at 490 nm) ([1]; parent: est. 0.53) | response (absorbance at 490 nm) ([2]; parent: est. 1.4) | Substance |
| --- | --- | --- | --- | --- | --- |
| 0.17 | 0.27 | – | – | – | recombinant human laminin-111 (from UniProt P25391;P07942;P11047) γ1:EQ (γ1C-Glu to Gln) |
| – | – | 0.13 | 0.62 | 1.6 | recombinant human laminin-511, O15230;P07942;P11047 γ1:EQ (γ1C-Glu to Gln) |
